Measured values: patent US20250172568A1 (TRUSTEES OF DARTMOUTH COLLEGE, published 2025)

B1: afucosylated BB7.2 IgG1 (HLA-A2-specific chimeric mAb) (antibody)
heavy: not shown
light: DVLMTQTPLSLPVSLGDQVSISCRSSQSIVHSNGNTYLEWYLQKPGQSPKLLIYKVSNRFSGVPDRFSGSGSGTDFTLKISRVEAEDLGVYYCFQGSHVPRTFGGGTKLEIKRADAAPTVSIFPPSSEQLTSGGASVVCFLNNFYPKDINVKWKIDGSERQNGVLNSWTDQDSKDSTYSMSSTLTLTKDEYERHNSYTCEATHKTSTSPIVKSFNRNEC
notes: also called afucosylated IgG1; afucosylated HLA-A2 mAb
B2: BB7.2 IgG3 (HLA-A2-specific chimeric mAb, unmodified / fucosylated) (antibody)
heavy: QVQLQQSGPELVKPGASVKMSCKASGYTFTSYHIQWVKQRPGQGLEWIGWIYPGDGSTQYNEKFKGKTTLTADKSSSTAYMLLSSLTSEDSAIYFCAREGTYYAMDYWGQGTSVTVSSAKTTPPSVYPLAPGCGDTTGSSVTLGCLVKGYFPESVTVTWNSGSLSSSVHTFPALLQSGLYTMSSSVTVPSSTWPSQTVTCSVAHPASSTTVDKKLELKTPLGDTTHTCPRCPEPKSCDTPPPCPRCPEPKSCDTPPPCPRCPEPKSCDTPPPCPRCPAPELLGGPSVFLFPPKPKDTLMISRTPEVTCVVVDVSHEDPEVQFKWYVDGVEVHNAKTKPREEQYNSTFRVVSVLTVLHQDWLNGKEYKCKVSNKALPAPIEKTISKTKGQPREPQVYTLPPSREEMTKNQVSLTCLVKGFYPSDIAVEWESSGQPENNYNTTPPMLDSDGSFFLYSKLTVDKSRWQQGNIFSCSVMHEALHNRFTQKSLSLSPGK
light: B1 light
notes: also called HLA-A2 IgG3 mAb; unmodified HLA-A2 mAb
B3: afucosylated BB7.2 IgG3 (HLA-A2-specific chimeric mAb) (antibody)
heavy: B2 heavy
light: B1 light
notes: also called afucosylated IgG3; afucosylated HLA-A2 mAb
B4: BB7.2 IgG1 (HLA-A2-specific chimeric mAb, unmodified / fucosylated) (antibody)
heavy: not shown
light: B1 light
notes: also called HLA-A2 IgG1 mAb; unmodified HLA-A2 mAb

Tests used:
[1] = molecular target: T1, FcγRIIIa V158 (recombinantly expressed, monomeric) (human, UniProt P08637 17-208); test: BLI (Octet), mAb on HLA-A2 antigen tips, monomeric FcγRIIIa V158; dissociation rate printed as 'KD'; the value is the MEAN over afucosylated IgG1 and IgG3
T1 construct: also called biotinylated FcγRIIIa V158 tetramers
Excerpt: (§1) Antibody-Receptor dissociation kinetics measurement by Biolayer Interferometry (BLI). […] Streptavidin tips were first coated with biotinylated HLA-A2 antigens. After establishing a signal baseline, the tips were loaded with HLA-A2-specific antibodies, dipped into the buffer for baseline, and then finally dipped into a solution of recombinantly expressed FcγRIIIa V158 monomers. Following receptor association, tips were dipped into a buffer, which allowed receptor dissociation. The dissociation rate of FcγR was defined relatively to a reference tip which was not dipped into the receptor.
(§2) High Precision Streptavidin 2.0 (SAX2) biosensor tips (Sartorius) were used to determine the kinetics of HLA-A2-specific IgG binding to human FcγRIIIa and FcγRI by biolayer interferometry (BLI) on an Octet (Forte Bio) instrument. Streptavidin (SA) biosensor tips were first loaded with HLA-A2 antigen, followed by HLA-A2 antibody, and finally dipped into FcγR to study the antibody-receptor kinetics. Biosensors were equilibrated with 0.05% Tween-PBS for 60 s, loaded with 0.25 μg/mL biotinylated HLA-A2 antigen (in 0.05% Tween-PBS) until they reached the threshold of 1 nm, and then dipped into 0.05% Tween-PBS to reach baseline for 60 s. […]

[2] = molecular target: T2, FcγRI (human, UniProt P12314 16-288); test: BLI (Octet), mAb on HLA-A2 antigen tips, 292 nM FcγRI in solution
T2 construct: also called human FcγRI
Description: High Precision Streptavidin 2.0 (SAX2) biosensor tips (Sartorius) were used to determine the kinetics of HLA-A2-specific IgG binding to human FcγRIIIa and FcγRI by biolayer interferometry (BLI) on an Octet (Forte Bio) instrument. Streptavidin (SA) biosensor tips were first loaded with HLA-A2 antigen, followed by HLA-A2 antibody, and finally dipped into FcγR to study the antibody-receptor kinetics. Biosensors were equilibrated with 0.05% Tween-PBS for 60 s, loaded with 0.25 μg/mL biotinylated HLA-A2 antigen (in 0.05% Tween-PBS) until they reached the threshold of 1 nm, and then dipped into 0.05% Tween-PBS to reach baseline for 60 s. […] To improve signal to noise, serum IgG was purified using Melon gel (Thermo) according to the manufacturer's instructions. Polyclonal serum IgG was loaded for 2,400 s. For FcγR dissociation rate (kd) determination, two SAX2 biosensor tips were used, one for the measurement and one as a reference to subtract background signal changes due to dissociation of other components, such as dissociation of HLA-A2-specific IgG from biotinylated HLA. Reference biosensors loaded with IgGs were dipped into buffer (0.05% Tween-PBS) instead of receptors. Finally, the sensors were dipped into 0.05% Tween-PBS for 180 s and 300 s for the dissociation of FcγRIIIa and FcγRI, respectively.

[3] = molecular target: T1, FcγRIIIa V158 (recombinantly expressed, …); test: BLI (Octet), mAb on HLA-A2 antigen tips, monomeric FcγRIIIa V158; dissociation rate printed as 'KD'; the value is the MEAN over unmodified IgG1 and IgG3
Excerpt: as §1, §2

T1 sequence (P08637 17-208 F176V limits assumed): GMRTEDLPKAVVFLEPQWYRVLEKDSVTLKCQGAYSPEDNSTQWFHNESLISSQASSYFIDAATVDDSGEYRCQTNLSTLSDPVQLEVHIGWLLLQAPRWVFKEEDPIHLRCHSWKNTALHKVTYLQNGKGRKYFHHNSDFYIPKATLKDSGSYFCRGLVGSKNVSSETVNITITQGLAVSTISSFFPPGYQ
T2 sequence (P12314 16-288 limits assumed): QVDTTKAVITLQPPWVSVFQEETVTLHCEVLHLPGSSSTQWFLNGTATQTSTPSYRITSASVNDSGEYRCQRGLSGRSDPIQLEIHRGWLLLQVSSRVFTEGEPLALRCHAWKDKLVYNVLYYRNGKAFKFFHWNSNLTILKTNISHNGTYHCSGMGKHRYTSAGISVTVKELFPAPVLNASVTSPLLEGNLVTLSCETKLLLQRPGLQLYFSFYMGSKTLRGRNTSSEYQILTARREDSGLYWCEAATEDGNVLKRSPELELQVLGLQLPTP

| Binder | koff [1] | binding result [2] | koff [3] |
| --- | --- | --- | --- |
| B1 | 0.021 s⁻¹ | binds | – |
| B2 | – | binds | 0.46 s⁻¹ |
| B3 | 0.021 s⁻¹ | binds | – |
| B4 | – | binds | 0.46 s⁻¹ |
